Experiment [1] deals with T1, Human recombinant VEGF165 (human, UniProt P15692 181-395).
T1 construct: also called rhVEGF165; rhVEGF
The experiment is described as follows: ELISA, human VEGF165 coated at 20 ng/well, antibody serially diluted from 1 ug/ml, peroxidase anti-human Ig, absorbance 450 nm. As for the experimental part:
(§1) Next, after 3 times of washing with 300 μL of 0.02% Tween 20-containing PBS (−) (hereafter, denoted as “PBS-T”), 300 μL of 3% skim milk-containing PBS (−) was dispensed to each well, followed by blocking at 37° C. for 1 hour. […] After washing similarly, TMB Single Solution was added for color development at room temperature. After the reaction was stopped with 1 N sulfuric acid, absorbance at 450 nm was measured using a plate reader (Molecular Devices).
For orientation: ELISA stands for enzyme-linked immunosorbent assay.

In experiment [2] the target is T2, human VEGF121 (human, UniProt P15692 207-321).
T2 sequence: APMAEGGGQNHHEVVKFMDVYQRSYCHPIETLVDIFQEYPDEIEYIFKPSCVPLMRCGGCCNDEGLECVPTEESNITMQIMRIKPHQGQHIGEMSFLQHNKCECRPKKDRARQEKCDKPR
Kind of experiment: ELISA, human VEGF121 coated at 20 ng/well, antibody serially diluted from 1 ug/ml, peroxidase anti-human Ig, absorbance 450 nm. As for the experimental part: as §1

Experiment [3] has as its target T3, canine VEGFA (VEGF164) (canine, UniProt Q9MYV3-3 27-190).
T3 construct: also called canine VEGF164
T3 sequence (looked up): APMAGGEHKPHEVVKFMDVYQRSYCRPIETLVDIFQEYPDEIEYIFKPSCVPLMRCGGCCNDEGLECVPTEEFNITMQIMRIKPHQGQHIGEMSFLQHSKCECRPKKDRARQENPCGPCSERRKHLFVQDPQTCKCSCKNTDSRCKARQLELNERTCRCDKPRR
The experiment is described as follows: ELISA, canine VEGFA coated at 20 ng/well, antibody serially diluted from 1 ug/ml, peroxidase anti-canine Ig, absorbance 450 nm. On the procedure:
(§2) Next, after 3 times of washing with 300 μL of 0.02% Tween 20-containing PBS (−) (hereafter, denoted as “PBS-T”), 300 μL of 3% skim milk-containing PBS (−) was dispensed into each well, followed by blocking at 37° C. for 1 hour. […] After washing similarly, TMB Single Solution was added for color development at room temperature. After the reaction was stopped with 1 N sulfuric acid, absorbance at 450 nm was measured using a plate reader (Molecular Devices).

In experiment [4] the target is T1, Human recombinant VEGF165. Kind of experiment: ELISA, human VEGF165 coated at 20 ng/well, antibody serially diluted from 1 ug/ml, peroxidase anti-canine Ig, absorbance 450 nm. As for the experimental part:
as §2

The target of experiment [5] is T1, Human recombinant VEGF165. The experiment is described as follows: SPR, BIAcore-3000, rhVEGF immobilized on the chip, antibody injected. (In general: SPR reads the build-up and loss of mass on a sensor chip optically.)
For experiment [6], the target named is T1, Human recombinant VEGF165. The experiment is described as follows: measured KD for rhVEGF set against a cited KD of Avastin; the excerpt does not show the method.

As a reminder, the EC50 (read off the curve) is the concentration that produces a half-maximal response. For orientation: Kd means the free concentration of one partner at which half of the binding sites on the other are occupied at equilibrium, for simple one-to-one binding.

B1: human IgG1 chimeric KLHb1501 antibody (antibody, V domains shown)
VH: DVQLQESGPGLVKPSQSLSLTCTVTGYSITSDYAWTWIRQFPGDKLEWMGYISYSGSTRYNPSLKSRISITRDTSKNQFFLHLNSVTTEDTATYFCARGGDYYGSRPWFAYWGQGTLVTVSA
VL: QAVVTQESALTTSPGETVTLTCRSSTGAVTISNYANWVQEKPDHLFTGLIGGTNNRAPDVPARFSGSLIGDKAALTITGAQTEDEAIYFCALWYSNHLVFGEGTKLTVL
notes: also called KLHb1501HC; KLHb1501HC antibody
As for B1, the “EC50 (read off the curve)” value in experiment [1] and in experiment [2] was approximately 0.04 mg/L in each case.

B2: canine-IgGB chimeric KLHb1501 antibody (antibody, V domains shown)
VH: B1 VH
VL: QAVVTQESALTTSPGETVTLTCRSSTGAVTISNYANWVQEKPDHLFTGLIGGTNNRAPDVPARFSGSLIGDKAALTITGAQTEDEAIYFCALWYSNHLVFGEGTKLTVLQ
notes: also called KLHb1501CC; KLHb1501CC antibody
Consider B2, for which the “EC50 (read off the curve)” value in experiment [3] and in experiment [4] was approximately 0.03 mg/L in each case.

B3: KLHb1501 (antibody, V domains shown)
VH: B1 VH
VL: B1 VL
notes: also called KLHb1501 antibody; KLH1501
As to B3, the Kd in experiment [5] amounted to 0.6 pM. For the same molecule, in experiment [6], the “ratio of dissociation constant to that of Avastin (bevacizumab)” value is ≤ 0.001 ratio (KD of the antibody / KD of Avastin, cited as 4.9 nmol/L).

These data come from US20200165330A1 (ORDER MADE MEDICAL RESEARCH, published 2020).
